Article PMC10963238, “The bacterial division protein MinDE has an independent function in flagellation” (The Journal of Biological Chemistry, 2024)

Target: T1, His-tagged cytoplasmic part of AtoS (232–608aa, cyto-AtoS) (Escherichia coli K-12, UniProt Q06067 232-608)
T1 construct: AtoS of Escherichia coli K-12, cytoplasmic part, residues 232-608; also called His-cyto-AtoS; His-AtoS; source: E. coli BL21 [DE3], purified (Ni2+-NTA agarose)
T1 sequence (looked up): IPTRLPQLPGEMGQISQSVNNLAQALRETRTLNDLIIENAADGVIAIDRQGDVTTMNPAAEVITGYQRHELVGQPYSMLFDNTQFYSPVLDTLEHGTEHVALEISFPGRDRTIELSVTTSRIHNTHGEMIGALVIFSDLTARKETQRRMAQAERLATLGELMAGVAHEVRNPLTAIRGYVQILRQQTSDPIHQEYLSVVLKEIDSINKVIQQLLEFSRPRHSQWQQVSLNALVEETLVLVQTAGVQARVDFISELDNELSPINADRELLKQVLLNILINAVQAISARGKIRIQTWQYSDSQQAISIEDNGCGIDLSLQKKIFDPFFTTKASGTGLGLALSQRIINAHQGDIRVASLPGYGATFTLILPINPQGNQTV
Test: pull-down; GST-MinD (5 μM) with His-cyto-AtoS (5 μM) in 50 mM Hepes pH 7.4, 150 mM KCl, room temperature 30 min; His-cyto-AtoS held on HisPure cobalt resin, 1 h at 4 °C; washed with 20 mM imidazole, eluted with 300 mM imidazole; Western blot with anti-GST and anti-His
Details: both partners purified

B1: GST-MinD (natural protein, Escherichia coli K-12, UniProt P0AEZ3 1-270, looked up)
chain: MARIIVVTSGKGGVGKTTSSAAIATGLAQKGKKTVVIDFDIGLRNLDLIMGCERRVVYDFVNVIQGDATLNQALIKDKRTENLYILPASQTRDKDALTREGVAKVLDDLKAMDFEFIVCDSPAGIETGALMALYFADEAIITTNPEVSSVRDSDRILGILASKSRRAENGEEPIKEHLLLTRYNPGRVSRGDMLSMEDVLEILRIKLVGVIPEDQSVLRASNQGEPVILDINADAGKAYADTVERLLGEERPFRFIEEEKKGFLKRLFGG
notes: MinD of Escherichia coli K-12; ORF amplified from E. coli K-12 genomic DNA; also called GST-tagged MinD; source: dialyzed against 50 mM Hepes pH 7.4, 150 mM KCl, 10% glycerol
Question: Does B1 bind?
Answer: binds
